Experimental findings from patent US20130243802A1 (ATLANTIC RESEARCH CENTER INSTITUTE, published 2013) are described below.

Experiment [1] concerns the target T1, Recombinant Mycobacterium tuberculosis HSP70 (Aalto, Eire) (Mycobacterium tuberculosis, UniProt P9WMJ9 1-625).
T1 construct: also called mtHSP70; Mycobacteria HSP70
As to the kind of experiment: CHIEF gel.

Experiment [2] addresses E. coli orthologue, dnaK (E. coli, UniProt P0A6Y8 2-638). As to the kind of experiment: CHIEF (counter HSP isoelectric focusing) gel.

T1 sequence (P9WMJ9 whole entry): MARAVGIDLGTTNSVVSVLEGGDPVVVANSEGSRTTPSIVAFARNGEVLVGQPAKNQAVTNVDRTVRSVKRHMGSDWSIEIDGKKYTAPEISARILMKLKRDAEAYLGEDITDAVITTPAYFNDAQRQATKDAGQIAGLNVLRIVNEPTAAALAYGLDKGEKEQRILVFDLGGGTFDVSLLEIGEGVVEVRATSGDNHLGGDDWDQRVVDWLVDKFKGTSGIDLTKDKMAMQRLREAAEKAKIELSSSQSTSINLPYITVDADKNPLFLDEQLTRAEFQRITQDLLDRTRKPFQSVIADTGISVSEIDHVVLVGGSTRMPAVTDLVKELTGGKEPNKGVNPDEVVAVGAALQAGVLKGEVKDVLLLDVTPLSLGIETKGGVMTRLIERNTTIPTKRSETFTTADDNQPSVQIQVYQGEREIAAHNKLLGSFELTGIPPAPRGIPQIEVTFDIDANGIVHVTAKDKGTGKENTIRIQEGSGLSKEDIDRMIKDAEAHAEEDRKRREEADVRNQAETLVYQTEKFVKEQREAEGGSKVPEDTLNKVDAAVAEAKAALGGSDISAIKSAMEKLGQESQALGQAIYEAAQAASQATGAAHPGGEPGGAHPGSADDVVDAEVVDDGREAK
E. coli orthologue, dnaK, sequence (P0A6Y8 2-638 limits assumed): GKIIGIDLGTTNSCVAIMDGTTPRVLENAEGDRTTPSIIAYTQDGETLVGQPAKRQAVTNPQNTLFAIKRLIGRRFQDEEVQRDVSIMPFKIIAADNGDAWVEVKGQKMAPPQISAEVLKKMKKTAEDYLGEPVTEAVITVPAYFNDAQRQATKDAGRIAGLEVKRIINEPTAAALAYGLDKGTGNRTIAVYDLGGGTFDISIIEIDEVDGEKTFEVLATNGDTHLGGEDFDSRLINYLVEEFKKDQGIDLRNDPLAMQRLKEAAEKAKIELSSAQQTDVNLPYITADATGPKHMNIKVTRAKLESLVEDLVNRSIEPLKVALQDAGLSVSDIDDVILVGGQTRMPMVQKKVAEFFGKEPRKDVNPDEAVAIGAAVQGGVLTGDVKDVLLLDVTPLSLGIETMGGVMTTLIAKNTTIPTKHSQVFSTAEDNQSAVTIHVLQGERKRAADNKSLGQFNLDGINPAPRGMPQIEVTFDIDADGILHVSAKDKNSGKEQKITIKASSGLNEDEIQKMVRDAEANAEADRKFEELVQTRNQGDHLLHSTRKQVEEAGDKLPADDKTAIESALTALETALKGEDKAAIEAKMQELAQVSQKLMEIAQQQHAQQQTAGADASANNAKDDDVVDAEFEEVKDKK

B1: bovine myelin basic protein (other, UniProt P02687 1-169, looked up)
chain: AAQKRPSQRSKYLASASTMDHARHGFLPRHRDTGILDSLGRFFGSDRGAPKRGSGKDGHHAARTTHYGSLPQKAQGHRPQDENPVVHFFKNIVTPRTPPPSQGKGRGLSLSRFSWGAEGQKPGFGYGGRASDYKSAHKGLKGHDAQGTLSKIFKLGGRDSRSGSPMARR
notes: also called bMBP; MBP
For the molecule B1, the values for the binding result in experiment [1] and in experiment [2] were “binds” and “no binding”, respectively.

B2: MBP 62-78 peptide (peptide)
peptide: ARTTHYGSLPQKAQGHR
notes: range 62-78; Synthetic candidate peptide; also called MBP peptide 1 (62-78)
Take B2: the binding result in experiment [1] is on record as “no binding”.
On the same count and under the same terms, to PSQGKGRGLSLSRFSWGA (Synthetic peptide (New England Peptide)) [bMBP 100-117 peptide] belongs “binds”.
